Measured values published in US8822645B2, “Prostaglandin E2 dual variable domain immunoglobulins and uses thereof” (AbbVie Inc., priority 2008, dated 2014).
Read-outs that look alike come from different tables or passages of the source. Values belong to the molecule of their own block, whether it stands above or below them.

Key:
[1] = system: PGE2 / human EP4 receptor in HEK293 Gα16 cells; test: EP4 bioassay (Ca++ flux, neutralization of PGE2); assay type: cell-based; conditions: EP4 bioassay, Ca++ flux
Method: The ability of anti-PGE2 antibodies and anti-PGE2 containing DVD-Ig molecules to inhibit the cellular response of PGE2 was determined in a Ca++ flux assay in HEK293 Gα16 cells stably transfected with human EP4 receptor. Cells were plated in black/clear poly-D-lysine plates, (Corning #3667, Corning, N.Y.) and incubated with Ca++-sensitive dye (Molecular Devices) for 90 minutes. Stock PGE2 (in 200 proof ethanol) was diluted with FLIPR buffer (containing 1×HBSS (Invitrogen, Carlsbad, Calif.), 20 mM HEPES (Invitrogen, Carlsbad, Calif.), 0.1% BSA (Sigma, St. Louis, Mo.) and 2.5 mM Probenecid (Sigma, St. Louis, Mo.)). Anti-PGE2 antibodies, DVD-Ig molecules or isotype matched control antibodies were also pre-diluted in FLIPR buffer. 25 μl of PGE2 or pre-incubated PGE2/antibody mixture or pre-incubated PGE2/DVD-Ig molecule mixture was added to the wells pre-plated with cells. A dose response of PGE2 was done by a serial titration of PGE2 and was determined using FLIPR1 or Tetra (Molecular Devices). EC50 was determined using GraphPad Prism 5 (GraftPad Software, La Jolla, Calif.). […] Ca++ flux was monitored using FLIPR1 and data was analyzed using GraphPad Prism 5.
The ability of anti-PGE2 antibodies and anti-PGE2 containing DVD-Ig molecules to inhibit the cellular response of PGE2 was determined in a Ca++ flux assay using stably transfected human EP4 in HEK293 Gα16 cells. Cells were plated in black/clear Poly-D-Lysine plates, (Corning #3667) and incubated with Ca++-sensitive dye (Molecular Devices) for 90 minutes. Stock PGE2 (in 200 proof ethanol) was diluted with FLIPR buffer (containing 1×HBSS, 20 mM HEPES, 0.1% BSA and 2.5 mM Probenecid). Anti-PGE2 antibodies, DVD-Ig molecules or isotype matched control antibodies were also pre-diluted in FLIPR buffer. 25 μl of PGE2 or pre-incubated PGE2/antibody mixture or pre-incubated PGE2/DVD-Ig molecule mixture was added to the wells pre-plated with cells. A dose response of PGE2 was done by a serial titration of PGE2 and was determined using FLIPR1 or Tetra (Molecular Devices). EC50 was determined using GraphPad Prism 5. […] Ca++ flux was monitored using FLIPR1 and data was analyzed using GraphPad Prism 5.

[2] = PGE2-biotinamide ELISA (PGE2 binding)
Method: (§1) Enzyme linked immunosorbent assays to screen for anti-PGE2 antibodies or anti-PGE2 containing DVD-Ig molecules that bind prostaglandin E2 were performed as follows. ELISA plates (Costar 3369, Corning, N.Y.) were coated with 50 μl of anti-host Fc IgG (Sigma, St. Louis, Mo.) at 2 μg/ml in PBS (Invitrogen Carlsbad, Calif.). Following an overnight incubation at 4° C., the plate was blocked with 200 μl Superblock (Pierce #37535, Rockford, Ill.). The IgG or DVD-Ig containing samples were diluted to 1 μg/ml in Assay Buffer (10% Superblock in PBS containing 0.05% Surfactamps (Pierce #37535, Rockford, Ill.) and incubated on the plate at 50 μl/well for 1 hour at room temperature. Following the incubation, plates were washed four times with TTBS (Tween-Tris Buffered Solution). For PGE2 binding, PGE2-biotinamide (Cayman Chemicals, Ann Arbor, Mich.) was diluted to 30 nM and serially diluted in Assay Buffer. The titration curve was added to each IgG or DVD-Ig sample at a volume of 50 μl/well and incubated for 1 hour at room temperature. The plates were washed as previously described and 50 μl/well of 1:5000 dilution of streptavidin polyhrp40 (Fitzgerald Industries, Concord, Mass.) in Assay Buffer was added and incubated for 45 minutes at room temperature. A final wash step was performed and the plates were developed using a single step TMB system (Sigma #T8665, St. Louis, Mo.) and 2N H2SO4. Plates were read at 450 nm on a Molecular Devices Spectramax plate reader (Sunnyvale, Calif.). EC50 was determined using GraphPad Prism 5 (GraphPad Software, La Jolla, Calif.) (FIG. 2).
as §1, with “ELISA” for “Enzyme linked immunosorbent assays to screen for anti-PGE2 antibodies or anti-PGE2 containing DVD-Ig molecules that bind prostaglandin E2 were performed as follows. ELISA”, “(Invitrogen,” for “(Invitrogen”, “IgG” for “IgG or DVD-Ig”, “Solution).” for “Solution). For PGE2 binding,”, “Calif.).” for “Calif.) (FIG. 2).”

[3] = PGE2 VD in N-terminal position, read-out: N-terminal VD PGE2 Neutralization EC50
[4] = PGE2 VD in N-terminal position, read-out: Direct Bind ELISA N-terminal VD EC50
[5] = PGE2 VD in C-terminal position, read-out: C-terminal VD PGE2 Neutralization EC50
[6] = PGE2 VD in C-terminal position, read-out: Direct Bind ELISA C-terminal VD EC50

B3: AB048: parent antibody, PGE2, SEQ ID 48/49 (antibody, V domains shown)
VH: EVQLVQSGAEVKKPGASVKVSCKASGYTFTKYWLGWVRQAPGQGLEWMGDIYPGYDYTHYNEKFKDRVTLTTDTSTSTAYMELRSLRSDDTAVYYCARSDGSSTYWGQGTLVTVSS
VL: DVLMTQTPLSLPVTPGEPASISCTSSQNIVHSNGNTYLEWYLQKPGQSPQLLIYKVSNRFSGVPDRFSGSGSGTDFTLKISRVEAEDVGVYYCFQVSHVPYTFGGGTKVEIKR
EC50 ([1]; parent antibody (cell spans both VD columns), read-out: PGE2 Neutralization EC50): 0.017 nM
EC50 ([2]; parent antibody (cell spans both VD columns), read-out: Direct Bind ELISA EC50 (PGE2 binding)): 1.49 nM

B4: DVD157: DVD-Ig construct listed in Table 4 (antibody)
VH: EVQLVQSGAEVKKPGASVKVSCKASGYTFTKYWLGWVRQAPGQGLEWMGDIYPGYDYTHYNEKFKDRVTLTTDTSTSTAYMELRSLRSDDTAVYYCARSDGSSTYWGQGTLVTVSSASTKGPQVQLVESGGGVVQPGRSLRLSCAASGFTFSVYGMNWVRQAPGKGLEWVAIIWYDGDNQYYADSVKGRFTISRDNSKNTLYLQMNGLRAEDTAVYYCARDLRTGPFDYWGQGTLVTVSS
VL: DVLMTQTPLSLPVTPGEPASISCTSSQNIVHSNGNTYLEWYLQKPGQSPQLLIYKVSNRFSGVPDRFSGSGSGTDFTLKISRVEAEDVGVYYCFQVSHVPYTFGGGTKVEIKRTVAAPEIVLTQSPDFQSVTPKEKVTITCRASQSIGSSLHWYQQKPDQSPKLLIKYASQSFSGVPSRFSGSGSGTDFTLTINSLEAEDAAAYYCHQSSSLPFTFGPGTKVDIKR
EC50 [1, 3]: 0.217 nM
EC50 [2, 4]: 1.23 nM

B6: DVD158: DVD-Ig construct listed in Table 4 (antibody)
VH: QVQLVESGGGVVQPGRSLRLSCAASGFTFSVYGMNWVRQAPGKGLEWVAIIWYDGDNQYYADSVKGRFTISRDNSKNTLYLQMNGLRAEDTAVYYCARDLRTGPFDYWGQGTLVTVSSASTKGPEVQLVQSGAEVKKPGASVKVSCKASGYTFTKYWLGWVRQAPGQGLEWMGDIYPGYDYTHYNEKFKDRVTLTTDTSTSTAYMELRSLRSDDTAVYYCARSDGSSTYWGQGTLVTVSS
VL: EIVLTQSPDFQSVTPKEKVTITCRASQSIGSSLHWYQQKPDQSPKLLIKYASQSFSGVPSRFSGSGSGTDFTLTINSLEAEDAAAYYCHQSSSLPFTFGPGTKVDIKRTVAAPDVLMTQTPLSLPVTPGEPASISCTSSQNIVHSNGNTYLEWYLQKPGQSPQLLIYKVSNRFSGVPDRFSGSGSGTDFTLKISRVEAEDVGVYYCFQVSHVPYTFGGGTKVEIKR
EC50 [1, 5]: 0.21 nM
EC50 [2, 6]: 1.14 nM

Second part, led by results:

EC50 [2, 4]: 1.02 nM
B1: DVD161: DVD-Ig construct listed in Table 4 (antibody)
VH: EVQLVQSGAEVKKPGASVKVSCKASGYTFTKYWLGWVRQAPGQGLEWMGDIYPGYDYTHYNEKFKDRVTLTTDTSTSTAYMELRSLRSDDTAVYYCARSDGSSTYWGQGTLVTVSSASTKGPEVQLVESGGGLVQPGGSLRLSCAASGYTFTNYGMNWVRQAPGKGLEWVGWINTYTGEPTYAADFKRRFTFSLDTSKSTAYLQMNSLRAEDTAVYYCAKYPHYYGSSHWYFDVWGQGTLVTVSS
VL: DVLMTQTPLSLPVTPGEPASISCTSSQNIVHSNGNTYLEWYLQKPGQSPQLLIYKVSNRFSGVPDRFSGSGSGTDFTLKISRVEAEDVGVYYCFQVSHVPYTFGGGTKVEIKRTVAAPDIQMTQSPSSLSASVGDRVTITCSASQDISNYLNWYQQKPGKAPKVLIYFTSSLHSGVPSRFSGSGSGTDFTLTISSLQPEDFATYYCQQYSTVPWTFGQGTKVEIKR
EC50 [1, 3]: 0.193 nM

EC50 [2, 6]: 1.32 nM
B2: DVD162: DVD-Ig construct listed in Table 4 (antibody)
VH: EVQLVESGGGLVQPGGSLRLSCAASGYTFTNYGMNWVRQAPGKGLEWVGWINTYTGEPTYAADFKRRFTFSLDTSKSTAYLQMNSLRAEDTAVYYCAKYPHYYGSSHWYFDVWGQGTLVTVSSASTKGPEVQLVQSGAEVKKPGASVKVSCKASGYTFTKYWLGWVRQAPGQGLEWMGDIYPGYDYTHYNEKFKDRVTLTTDTSTSTAYMELRSLRSDDTAVYYCARSDGSSTYWGQGTLVTVSS
VL: DIQMTQSPSSLSASVGDRVTITCSASQDISNYLNWYQQKPGKAPKVLIYFTSSLHSGVPSRFSGSGSGTDFTLTISSLQPEDFATYYCQQYSTVPWTFGQGTKVEIKRTVAAPDVLMTQTPLSLPVTPGEPASISCTSSQNIVHSNGNTYLEWYLQKPGQSPQLLIYKVSNRFSGVPDRFSGSGSGTDFTLKISRVEAEDVGVYYCFQVSHVPYTFGGGTKVEIKR
EC50 [1, 5]: 0.067 nM

EC50 [2, 6]: 1.3 nM
B5: DVD164: DVD-Ig construct listed in Table 4 (antibody)
VH: QVQLQESGPGLVKPSETLSLTCTVSGFSLIGYDLNWIRQPPGKGLEWIGIIWGDGTTDYNSAVKSRVTISKDTSKNQFSLKLSSVTAADTAVYYCARGGYWYATSYYFDYWGQGTLVTVSSASTKGPEVQLVQSGAEVKKPGASVKVSCKASGYTFTKYWLGWVRQAPGQGLEWMGDIYPGYDYTHYNEKFKDRVTLTTDTSTSTAYMELRSLRSDDTAVYYCARSDGSSTYWGQGTLVTVSS
VL: DIQMTQSPSSLSASVGDRVTITCRASQSISNNLNWYQQKPGKAPKLLIYYTSRFHSGVPSRFSGSGSGTDFTFTISSLQPEDIATYYCQQEHTLPYTFGQGTKLEIKRTVAAPDVLMTQTPLSLPVTPGEPASISCTSSQNIVHSNGNTYLEWYLQKPGQSPQLLIYKVSNRFSGVPDRFSGSGSGTDFTLKISRVEAEDVGVYYCFQVSHVPYTFGGGTKVEIKR
EC50 [1, 5]: 0.079 nM
